Data taken from patent US20230125788, “TDP-43 MODULATING AGENTS AND USES THEREOF” (Washington University, published 2023).

T1: TDP-43 deltaN (UniProt Q13148 Q13148:102-414)
T1 chain: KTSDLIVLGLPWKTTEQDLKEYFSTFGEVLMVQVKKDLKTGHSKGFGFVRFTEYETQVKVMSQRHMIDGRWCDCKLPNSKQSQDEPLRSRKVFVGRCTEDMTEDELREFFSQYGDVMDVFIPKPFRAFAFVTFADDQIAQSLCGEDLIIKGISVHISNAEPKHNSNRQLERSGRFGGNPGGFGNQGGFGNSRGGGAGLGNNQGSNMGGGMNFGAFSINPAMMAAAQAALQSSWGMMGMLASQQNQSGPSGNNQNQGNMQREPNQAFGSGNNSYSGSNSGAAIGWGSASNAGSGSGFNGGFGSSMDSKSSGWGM

T2: TDP-43 RRM1-2 (UniProt Q13148 Q13148:102-269)
T2 chain: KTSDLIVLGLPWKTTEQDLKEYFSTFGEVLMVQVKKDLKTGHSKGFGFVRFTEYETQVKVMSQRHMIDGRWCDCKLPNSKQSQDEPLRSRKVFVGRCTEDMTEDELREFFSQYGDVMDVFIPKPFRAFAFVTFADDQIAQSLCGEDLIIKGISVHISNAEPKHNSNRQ


Key:
TDP-43 WT [1] = target: T3, TDP-43 WT (UniProt Q13148 Q13148:1-414); experiment: FP; Kd dramatically lower than unmodified; values only in figure; conditions: tags: N-terminal His6-SUMO (Smt3), E. coli BL21(DE3), pET28b(+)-SUMO-TDP43
T3 sequence (Q13148 whole entry, one chain of several): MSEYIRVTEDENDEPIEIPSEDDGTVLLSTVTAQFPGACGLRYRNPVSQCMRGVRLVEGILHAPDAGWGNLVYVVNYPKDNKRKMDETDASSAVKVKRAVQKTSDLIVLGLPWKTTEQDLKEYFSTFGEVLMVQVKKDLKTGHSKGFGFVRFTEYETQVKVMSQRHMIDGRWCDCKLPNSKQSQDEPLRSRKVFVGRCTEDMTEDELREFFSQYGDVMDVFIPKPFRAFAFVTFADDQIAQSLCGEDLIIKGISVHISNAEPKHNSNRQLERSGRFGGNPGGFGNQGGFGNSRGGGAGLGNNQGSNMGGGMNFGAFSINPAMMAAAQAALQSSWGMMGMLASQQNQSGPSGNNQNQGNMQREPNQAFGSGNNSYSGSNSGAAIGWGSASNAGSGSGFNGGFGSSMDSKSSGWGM

TDP-43 WT [2] = target: T3, TDP-43 WT; experiment: FP; higher Kd than modified; values only in figure; conditions: tags: N-terminal His6-SUMO (Smt3), E. coli BL21(DE3), pET28b(+)-SUMO-TDP43
TDP-43 WT [3] = target: T3, TDP-43 WT; experiment: EMSA; at least three TDP-43 bound per oligo; 150 mM NaCl, 2 mM MgCl2, Tris pH 8; conditions: tags: N-terminal His6-SUMO (Smt3), E. coli BL21(DE3), pET28b(+)-SUMO-TDP43; label: 5' 700 nm IR dye
TDP-43 WT [4] = target: T3, TDP-43 WT; experiment: FP; apparent; 300 mM NaCl, 10 mM Tris pH 8.0; conditions: tags: N-terminal His6-SUMO (Smt3), E. coli BL21(DE3), pET28b(+)-SUMO-TDP43; label: FITC
Protocol: Each point is the average of >3 technical and 3 biological replicates, respectively (SEM).
Recombinant TDP-43 wild-type (WT) and constructs previously purified were serially diluted in a 1:2 ratio (from 75 to 0 nM) into a 300 mM of NaCl, 10 mM of Tris (pH 8.0), 5% glycerol, 5% sucrose, 1 mM of TCEP buffer solution. A(GU)₆ RNA labeled with fluorescein isothiocyanate (FITC) from IDT was used at a final concentration of 0.6, 1.3, 2.5, and 5 nM. […] The anisotropy measurements were performed in a Biotek SYNERGY Neo2 (BioSPX) plate reader with excitation and emission wavelengths of 480 and 520 nm, respectively. To assess the binding curves, the data were fitted as previously described. Data analysis was performed using GraphPad Prism 5.

TDP-43 deltaN = target: T1, TDP-43 deltaN; experiment: FP; apparent; 300 mM NaCl; conditions: tags: N-terminal His6-SUMO; label: FITC
TDP-43 RRM1-2 = target: T2, TDP-43 RRM1-2; experiment: FP; apparent; 300 mM NaCl; conditions: tags: N-terminal His6-SUMO; label: FITC

Row | Binder | binding result (TDP-43 WT [1]) | binding result (TDP-43 WT [2]) | other results
1 | GAGAGAGCGCGTGCAGAGACTTGGTGGTGCATAA (XNA, 2'-OMe all; PS all linkages) [CLIP34 2OMe] | binds | – | –
2 | AGTGTGTGTGTGT (XNA, 2'-OMe all; PS all linkages) [A(GU)6 2OMe] | binds | – | –
3 | AGUGUGUGUGUGU (ssRNA) [A(GU)6 unmodified] | – | binds | –
4 | GAGAGAGCGCGUGCAGAGACUUGGUGGUGCAUAA (ssRNA) [CLIP34 IR700] | – | – | binding result (TDP-43 WT [3]): binds
5 | GAGAGAGCGCGUGCAGAGACUUGGUGGUGCAUAA (ssRNA) [CLIP34 unmodified] | – | binds | –
6 | AGUGUGUGUGUGU (ssRNA, 2'-OMe and PS unless otherwise noted (general statement)) [A(GU)6-FITC] | – | – | Kd (TDP-43 WT [4]): 0.8 nM; Kd (TDP-43 deltaN): 0.7 nM; Kd (TDP-43 RRM1-2): 0.8 nM
